From CN112409487A (NINGBO SAIPO BIOTECHNOLOGY CO LTD, dated 2021)

Target: T1, 人可溶性转铁蛋白受体校准品 (human, UniProt P02786 101-760, limits assumed)
T1 construct: also called sTfR校准品
Assay: double-antibody sandwich latex immunoturbidimetry on the calibrator, OD570nm

T1 sequence (P02786 101-760 limits assumed): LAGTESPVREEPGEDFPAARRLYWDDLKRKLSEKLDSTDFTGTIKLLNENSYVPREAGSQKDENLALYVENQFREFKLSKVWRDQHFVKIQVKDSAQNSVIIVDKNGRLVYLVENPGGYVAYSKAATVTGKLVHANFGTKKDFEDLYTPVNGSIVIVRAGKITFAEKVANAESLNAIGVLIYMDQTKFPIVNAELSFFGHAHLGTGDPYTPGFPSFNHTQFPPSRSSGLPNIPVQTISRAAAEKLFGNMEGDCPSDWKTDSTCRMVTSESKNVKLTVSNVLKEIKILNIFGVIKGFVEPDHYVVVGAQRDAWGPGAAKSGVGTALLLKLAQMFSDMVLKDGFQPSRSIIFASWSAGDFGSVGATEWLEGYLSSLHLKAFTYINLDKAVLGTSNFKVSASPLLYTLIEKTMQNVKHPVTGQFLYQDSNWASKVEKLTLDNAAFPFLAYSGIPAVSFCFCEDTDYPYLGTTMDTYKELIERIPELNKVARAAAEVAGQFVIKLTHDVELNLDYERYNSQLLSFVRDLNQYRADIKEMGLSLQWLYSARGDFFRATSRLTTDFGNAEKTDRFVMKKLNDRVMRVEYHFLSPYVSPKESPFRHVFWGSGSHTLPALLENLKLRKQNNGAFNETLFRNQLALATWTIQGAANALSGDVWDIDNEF

binding result: binds
B1: 鼠单克隆抗体8E11 (antibody, V domains shown)
VH: QVQLQQSGAELVRPGTSVKISCKASGYAFTNYWLGWVKQRPGRGLEWIGDIFPGSSNTYYNEKFKGKASLTADKSSSTAYMHLSSLTSEDSAVYFCARVKDYYAMGYWGQGTSVTVSS
VL: ENVLTQSPAIMSASPGEKVTMTCSASSSVSYMNWYQQKSITSPKLWIYDTFKLASGVPGRFSGSGSGNSYSLTISSMEAEDVATYYCFQGSGYPYTFGGGTKLEIK
notes: Mouse hybridoma monoclonal antibody, purified from ascites on protein G and detected with goat anti-mouse IgG; It was coupled to latex particles in the turbidimetric assay; also called 第一单克隆抗体
